Source: paper PMC11172241, “Insight into the Mechanism of Lysogeny Control of phiCDKH01 Bacteriophage Infecting Clinical Isolate of Clostridioides difficile”

T1: phiCDKH01 XRE family repressor (XRE-His) (Clostridioides difficile phage phiCDKH01 (host strain CD34/Sr)), UPI000235AC6A
T1 sequence: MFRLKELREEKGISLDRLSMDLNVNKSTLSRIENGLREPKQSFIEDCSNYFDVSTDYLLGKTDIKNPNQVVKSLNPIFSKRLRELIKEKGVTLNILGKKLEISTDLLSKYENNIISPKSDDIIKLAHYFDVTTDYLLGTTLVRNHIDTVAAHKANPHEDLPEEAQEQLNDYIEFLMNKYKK

T2: phiCDKH01 XRE family repressor (XRE-His) (Clostridioides difficile phage …, UniProt UPI000235AC6A 1-181)
T2 sequence: T1 sequence

B1: BIND (minimal XRE-binding fragment) (dsDNA)
DNA 1: TTACAATTAAAATTGCCAAAAAAGCAACAA
DNA 2: TTGTTGCTTTTTTGGCAATTTTAATTGTAA

Experiments:
[1] = test system: T1, phiCDKH01 XRE family repressor (XRE-His) (Clostridioides difficile phage phiCDKH01 (host strain CD34/Sr)), UPI000235AC6A; assay: EMSA; conditions: 50 mM Tris-HCl pH 7.5, 50 mM NaCl, 200 mM KCl, 50 mM MgCl2, 5 mM EDTA, 5 mM DTT, 0.25 mg/mL BSA, 15 min, room temperature, 0.1 pmol DNA, 0-200 ng protein
[2] = molecular target: T2, phiCDKH01 XRE family repressor (XRE-His); assay: EMSA; 50 mM Tris-HCl pH 7.5, 50 mM NaCl, 200 mM KCl, 50 mM MgCl2, 5 mM EDTA, 5 mM DTT, 0.25 mg/mL BSA, 15 min, room temperature; 0.1 pmol DNA, 0-200 ng protein; 5% TBE gel; conditions: protein: recombinant; tag encoded at 3' end by primer S4); chain copies: 2; blunt

Row | Molecule | binding [1] | binding result [2]
1 | CATTATAGCAACTTTTATTTACATTATAGCAACTTTTTTTGTTATTACAATTAAAATTGCCAAAAAAGCAACAAAAATATTGACTTTTAACATTTTTGTTGCTATTATATAA (double strand) [S2] | binds | 
2 | GCAACTTTTTTTGTTATTACAATTAAAATTGCCAAAAAAGCAACAAAAATATTGACTTTTAACATTTTTGTTGCTATTATATAAACAAGAACTTGCTTATATAGCAAAAAGTTAGAGGGTGA (double strand) [S3 (Methods text says S4)] | binds | 
3 | GTTGCTATAATGTAAATAAAAGTTGCTATAATGAAAACTACAATAAAGGATGATTTTATATGTTTAGATTAAAAGAACTGAGAGAAG (double strand) [S1] | binds | 
4 | B1 |  | binds
